According to US20160272683A1 (Novo Nordisk, published 2016):
Numbered stars: 1 amine (or outer) side, 2 acyl side, 3 side chain; on linkers, the order of the positions; unused ones are H or OH. * marks the point of attachment. C20 diacid = O=C(O)CCCCCCCCCCCCCCCCCCC(=O)*; C18 diacid = O=C(O)CCCCCCCCCCCCCCCCC(=O)*; γGlu = O=C(O)[C@H](CCC(=O)[*:2])N[*:1]

T1: human amylin receptor (human calcitonin receptor + human RAMP3) (human) (UniProt P30988)
T1 sequence (looked up) 1: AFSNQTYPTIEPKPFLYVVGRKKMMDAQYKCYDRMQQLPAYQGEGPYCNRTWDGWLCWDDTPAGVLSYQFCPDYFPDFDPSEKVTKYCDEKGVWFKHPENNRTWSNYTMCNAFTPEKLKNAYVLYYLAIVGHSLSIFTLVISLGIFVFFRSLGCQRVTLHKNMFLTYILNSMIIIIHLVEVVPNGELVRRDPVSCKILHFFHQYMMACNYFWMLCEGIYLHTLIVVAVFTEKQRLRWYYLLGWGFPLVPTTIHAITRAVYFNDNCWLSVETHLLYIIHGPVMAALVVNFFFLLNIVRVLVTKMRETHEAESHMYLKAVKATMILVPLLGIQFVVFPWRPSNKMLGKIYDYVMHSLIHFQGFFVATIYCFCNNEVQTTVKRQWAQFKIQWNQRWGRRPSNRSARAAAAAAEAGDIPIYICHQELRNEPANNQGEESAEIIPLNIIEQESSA
T1 sequence (looked up) 2: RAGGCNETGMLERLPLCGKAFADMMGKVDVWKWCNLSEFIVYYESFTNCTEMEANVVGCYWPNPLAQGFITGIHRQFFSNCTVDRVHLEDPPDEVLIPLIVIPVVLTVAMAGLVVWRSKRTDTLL


Target: T1, human amylin receptor (human calcitonin receptor + human RAMP3) (human)
Experiment: whole-cell competition vs 125I-rat amylin (Assay Va)

Binder	IC50 [pM]
{C20 diacid-γGlu}-EAASELSTAALGRLSAELHELATYPRTETGSGSP-NH2 (SMILES CC(C)C[C@H](NC(=O)[C@H](C)NC(=O)[C@H](C)NC(=O)[C@@H](NC(=O)[C@H](CO)NC(=O)[C@H](CC(C)C)NC(=O)[C@H](CCC(=O)O)NC(=O)[C@H](CO)NC(=O)[C@H](C)NC(=O)[C@H](C)NC(=O)[C@H](CCC(=O)O)NC(=O)CC[C@H](NC(=O)CCCCCCCCCCCCCCCCCCC(=O)O)C(=O)O)[C@@H](C)O)C(=O)NCC(=O)N[C@@H](CCCNC(=N)N)C(=O)N[C@@H](CC(C)C)C(=O)N[C@@H](CO)C(=O)N[C@@H](C)C(=O)N[C@@H](CCC(=O)O)C(=O)N[C@@H](CC(C)C)C(=O)N[C@@H](Cc1c[nH]cn1)C(=O)N[C@@H](CCC(=O)O)C(=O)N[C@@H](CC(C)C)C(=O)N[C@@H](C)C(=O)N[C@H](C(=O)N[C@@H](Cc1ccc(O)cc1)C(=O)N1CCC[C@H]1C(=O)N[C@@H](CCCNC(=N)N)C(=O)N[C@H](C(=O)N[C@@H](CCC(=O)O)C(=O)N[C@H](C(=O)NCC(=O)N[C@@H](CO)C(=O)NCC(=O)N[C@@H](CO)C(=O)N1CCC[C@H]1C(N)=O)[C@@H](C)O)[C@@H](C)O)[C@@H](C)O) [[N-terminal(C20 diacid-gGlu), -1E, 1A, 23Y, 30S, 31G]mimylin]	1920
{C18 diacid}-EASEISTAIIGRLSAELHEIATLPRTETGPESP-NH2 (SMILES CC[C@H](C)[C@H](NC(=O)[C@H](C)NC(=O)[C@@H](NC(=O)[C@H](CO)NC(=O)[C@@H](NC(=O)[C@H](CCC(=O)O)NC(=O)[C@H](CO)NC(=O)[C@H](C)NC(=O)[C@H](CCC(=O)O)NC(=O)CCCCCCCCCCCCCCCCC(=O)O)[C@@H](C)CC)[C@@H](C)O)C(=O)N[C@H](C(=O)NCC(=O)N[C@@H](CCCNC(=N)N)C(=O)N[C@@H](CC(C)C)C(=O)N[C@@H](CO)C(=O)N[C@@H](C)C(=O)N[C@@H](CCC(=O)O)C(=O)N[C@@H](CC(C)C)C(=O)N[C@@H](Cc1c[nH]cn1)C(=O)N[C@@H](CCC(=O)O)C(=O)N[C@H](C(=O)N[C@@H](C)C(=O)N[C@H](C(=O)N[C@@H](CC(C)C)C(=O)N1CCC[C@H]1C(=O)N[C@@H](CCCNC(=N)N)C(=O)N[C@H](C(=O)N[C@@H](CCC(=O)O)C(=O)N[C@H](C(=O)NCC(=O)N1CCC[C@H]1C(=O)N[C@@H](CCC(=O)O)C(=O)N[C@@H](CO)C(=O)N1CCC[C@H]1C(N)=O)[C@@H](C)O)[C@@H](C)O)[C@@H](C)O)[C@@H](C)CC)[C@@H](C)CC) [[N-terminal(C18 diacid), 5I, 9I, 10I, 20I]mimylin]	998
{C20 diacid-γGlu}-ASELSTAALGRLSAELHELATYPRTETGSGSY-OH [[N-terminal(C20 diacid-gGlu), des1, 23Y, 30S, 31G, 33Y, C-terminal(-)]mimylin]	92000
{C18 diacid-γGlu}-ASEVSTAVLGRLSAELHELATLPRTETGSGSP-NH2 [[N-terminal(C18 diacid-gGlu), des1, 5V, 9V, 30S, 31G]mimylin]	812
{C20 diacid-γGlu}-ASELSTAALGRLSAELHELATYPRTETGSGSPG-OH (SMILES CC(C)C[C@H](NC(=O)[C@H](C)NC(=O)[C@H](C)NC(=O)[C@@H](NC(=O)[C@H](CO)NC(=O)[C@H](CC(C)C)NC(=O)[C@H](CCC(=O)O)NC(=O)[C@H](CO)NC(=O)[C@H](C)NC(=O)CC[C@H](NC(=O)CCCCCCCCCCCCCCCCCCC(=O)O)C(=O)O)[C@@H](C)O)C(=O)NCC(=O)N[C@@H](CCCNC(=N)N)C(=O)N[C@@H](CC(C)C)C(=O)N[C@@H](CO)C(=O)N[C@@H](C)C(=O)N[C@@H](CCC(=O)O)C(=O)N[C@@H](CC(C)C)C(=O)N[C@@H](Cc1c[nH]cn1)C(=O)N[C@@H](CCC(=O)O)C(=O)N[C@@H](CC(C)C)C(=O)N[C@@H](C)C(=O)N[C@H](C(=O)N[C@@H](Cc1ccc(O)cc1)C(=O)N1CCC[C@H]1C(=O)N[C@@H](CCCNC(=N)N)C(=O)N[C@H](C(=O)N[C@@H](CCC(=O)O)C(=O)N[C@H](C(=O)NCC(=O)N[C@@H](CO)C(=O)NCC(=O)N[C@@H](CO)C(=O)N1CCC[C@H]1C(=O)NCC(=O)O)[C@@H](C)O)[C@@H](C)O)[C@@H](C)O) [[N-terminal(C20 diacid-gGlu), des1, 23Y, 30S, 31G, 34G, C-terminal(-)]mimylin]	7260

The next binders have a lower IC50 than those just listed; values first:

IC50 [pM]	Binder
764	{C18 diacid-γGlu}-ASELSTAVLGRLSAELHELATLPRTETGSGSP-NH2 (SMILES CC(C)C[C@H](NC(=O)[C@H](CCC(=O)O)NC(=O)[C@H](Cc1c[nH]cn1)NC(=O)[C@H](CC(C)C)NC(=O)[C@H](CCC(=O)O)NC(=O)[C@H](C)NC(=O)[C@H](CO)NC(=O)[C@H](CC(C)C)NC(=O)[C@H](CCCNC(=N)N)NC(=O)CNC(=O)[C@H](CC(C)C)NC(=O)[C@@H](NC(=O)[C@H](C)NC(=O)[C@@H](NC(=O)[C@H](CO)NC(=O)[C@H](CC(C)C)NC(=O)[C@H](CCC(=O)O)NC(=O)[C@H](CO)NC(=O)[C@H](C)NC(=O)CC[C@H](NC(=O)CCCCCCCCCCCCCCCCC(=O)O)C(=O)O)[C@@H](C)O)C(C)C)C(=O)N[C@@H](C)C(=O)N[C@H](C(=O)N[C@@H](CC(C)C)C(=O)N1CCC[C@H]1C(=O)N[C@@H](CCCNC(=N)N)C(=O)N[C@H](C(=O)N[C@@H](CCC(=O)O)C(=O)N[C@H](C(=O)NCC(=O)N[C@@H](CO)C(=O)NCC(=O)N[C@@H](CO)C(=O)N1CCC[C@H]1C(N)=O)[C@@H](C)O)[C@@H](C)O)[C@@H](C)O) [[N-terminal(C18 diacid-gGlu), des1, 9V, 30S, 31G]mimylin]
428	{C18 diacid-γGlu}-ASQLSTAALGRLSAQLHELATLPRTETGSGSP-NH2 (SMILES CC(C)C[C@H](NC(=O)[C@H](C)NC(=O)[C@H](C)NC(=O)[C@@H](NC(=O)[C@H](CO)NC(=O)[C@H](CC(C)C)NC(=O)[C@H](CCC(N)=O)NC(=O)[C@H](CO)NC(=O)[C@H](C)NC(=O)CC[C@H](NC(=O)CCCCCCCCCCCCCCCCC(=O)O)C(=O)O)[C@@H](C)O)C(=O)NCC(=O)N[C@@H](CCCNC(=N)N)C(=O)N[C@@H](CC(C)C)C(=O)N[C@@H](CO)C(=O)N[C@@H](C)C(=O)N[C@@H](CCC(N)=O)C(=O)N[C@@H](CC(C)C)C(=O)N[C@@H](Cc1c[nH]cn1)C(=O)N[C@@H](CCC(=O)O)C(=O)N[C@@H](CC(C)C)C(=O)N[C@@H](C)C(=O)N[C@H](C(=O)N[C@@H](CC(C)C)C(=O)N1CCC[C@H]1C(=O)N[C@@H](CCCNC(=N)N)C(=O)N[C@H](C(=O)N[C@@H](CCC(=O)O)C(=O)N[C@H](C(=O)NCC(=O)N[C@@H](CO)C(=O)NCC(=O)N[C@@H](CO)C(=O)N1CCC[C@H]1C(N)=O)[C@@H](C)O)[C@@H](C)O)[C@@H](C)O) [[N-terminal(C18 diacid-gGlu), des1, 4Q, 16Q, 30S, 31G]mimylin]
653	{C18 diacid-γGlu}-ASELTTAVLGRLSAELHELATLPRTETGSGSP-NH2 (SMILES CC(C)C[C@H](NC(=O)[C@H](CCC(=O)O)NC(=O)[C@H](Cc1c[nH]cn1)NC(=O)[C@H](CC(C)C)NC(=O)[C@H](CCC(=O)O)NC(=O)[C@H](C)NC(=O)[C@H](CO)NC(=O)[C@H](CC(C)C)NC(=O)[C@H](CCCNC(=N)N)NC(=O)CNC(=O)[C@H](CC(C)C)NC(=O)[C@@H](NC(=O)[C@H](C)NC(=O)[C@@H](NC(=O)[C@@H](NC(=O)[C@H](CC(C)C)NC(=O)[C@H](CCC(=O)O)NC(=O)[C@H](CO)NC(=O)[C@H](C)NC(=O)CC[C@H](NC(=O)CCCCCCCCCCCCCCCCC(=O)O)C(=O)O)[C@@H](C)O)[C@@H](C)O)C(C)C)C(=O)N[C@@H](C)C(=O)N[C@H](C(=O)N[C@@H](CC(C)C)C(=O)N1CCC[C@H]1C(=O)N[C@@H](CCCNC(=N)N)C(=O)N[C@H](C(=O)N[C@@H](CCC(=O)O)C(=O)N[C@H](C(=O)NCC(=O)N[C@@H](CO)C(=O)NCC(=O)N[C@@H](CO)C(=O)N1CCC[C@H]1C(N)=O)[C@@H](C)O)[C@@H](C)O)[C@@H](C)O) [[N-terminal(C18 diacid-gGlu), des1, 6T, 9V, 30S, 31G]mimylin]
111	{C20 diacid-γGlu}-ASGLSTAALGRLSAELHELATYPRTETGSGSP-NH2 [[N-terminal(C20 diacid-gGlu), des1, 4G, 23Y, 30S, 31G]mimylin]
587	{C18 diacid-γGlu}-ASQLSTAALGRLSAELHELATLPRTETGSGSP-NH2 (SMILES CC(C)C[C@H](NC(=O)[C@H](C)NC(=O)[C@H](C)NC(=O)[C@@H](NC(=O)[C@H](CO)NC(=O)[C@H](CC(C)C)NC(=O)[C@H](CCC(N)=O)NC(=O)[C@H](CO)NC(=O)[C@H](C)NC(=O)CC[C@H](NC(=O)CCCCCCCCCCCCCCCCC(=O)O)C(=O)O)[C@@H](C)O)C(=O)NCC(=O)N[C@@H](CCCNC(=N)N)C(=O)N[C@@H](CC(C)C)C(=O)N[C@@H](CO)C(=O)N[C@@H](C)C(=O)N[C@@H](CCC(=O)O)C(=O)N[C@@H](CC(C)C)C(=O)N[C@@H](Cc1c[nH]cn1)C(=O)N[C@@H](CCC(=O)O)C(=O)N[C@@H](CC(C)C)C(=O)N[C@@H](C)C(=O)N[C@H](C(=O)N[C@@H](CC(C)C)C(=O)N1CCC[C@H]1C(=O)N[C@@H](CCCNC(=N)N)C(=O)N[C@H](C(=O)N[C@@H](CCC(=O)O)C(=O)N[C@H](C(=O)NCC(=O)N[C@@H](CO)C(=O)NCC(=O)N[C@@H](CO)C(=O)N1CCC[C@H]1C(N)=O)[C@@H](C)O)[C@@H](C)O)[C@@H](C)O) [[N-terminal(C18 diacid-gGlu), des1, 4Q, 30S, 31G]mimylin]
